Values of other authors, collected in publication PMC8495453.

Target: Galectin-3 (Homo sapiens) (UniProt P17931)
Sequence (P17931 2-250): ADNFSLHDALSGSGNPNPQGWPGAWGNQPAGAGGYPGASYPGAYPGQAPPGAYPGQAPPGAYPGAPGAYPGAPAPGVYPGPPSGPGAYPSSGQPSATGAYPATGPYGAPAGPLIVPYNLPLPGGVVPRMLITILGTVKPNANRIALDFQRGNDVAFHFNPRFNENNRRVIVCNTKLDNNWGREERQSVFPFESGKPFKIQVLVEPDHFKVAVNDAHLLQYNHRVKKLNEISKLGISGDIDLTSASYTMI

Chain of LAMP1 29-382 (P11279 29-382): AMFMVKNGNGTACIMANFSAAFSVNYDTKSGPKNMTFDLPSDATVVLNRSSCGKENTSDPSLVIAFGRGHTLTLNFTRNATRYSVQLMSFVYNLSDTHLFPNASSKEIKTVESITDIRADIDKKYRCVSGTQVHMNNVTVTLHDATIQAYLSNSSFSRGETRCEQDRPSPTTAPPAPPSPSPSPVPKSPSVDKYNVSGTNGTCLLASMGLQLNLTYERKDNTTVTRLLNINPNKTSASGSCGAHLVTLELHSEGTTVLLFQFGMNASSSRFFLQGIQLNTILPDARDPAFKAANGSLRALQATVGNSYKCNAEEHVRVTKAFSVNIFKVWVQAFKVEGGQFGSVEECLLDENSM

For LAMP1 29-382 (from UniProt P11279), the Kd is given as < 25 nM.
